In the nanobody polyreactivity screen of Harvey et al. (2022):

Assay: yeast display, Sf9 membrane polyspecificity reagent, FACS + sequencing; frameworks hold sequencing errors
Method in brief: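 Sorting gates, low and high (top ~1%), were placed on anti-HA fluorescence to track expression and on streptavidin fluorescence to track reagent binding. A clone's polyreactivity label is taken from the gate it came out of. The reagent was 10% biotinylated, detergent-solubilized Sf9 membrane, applied for 1 hour at 4 °C to galactose-induced yeast display cells.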

| Sequence | polyreactivity (PSR sort gate) |
| --- | --- |
| QVQLVESGGGVVQAGGSLRLSCAASGSIFFLYAMGWSRQATGKEREFVAAITGTADSTYYADSVKGRFTISRDDAKNTVYLQMNSLKPEDTAVYYCATDYWSSVKLDDYWGQGTQVTVSS | low polyreactivity |
| QVQLVESGGGLVQAGGSLRLSCASSGRIFGTYAMGWYRQAPGKERELVARIRTSGSTNYADSVKGRFTISRDNAKNTVYLQMNSLKPEDTAVYYCAADRRYYSAYEYWGQGTQVTVSS | high polyreactivity |
| QDQLVDSGGGLLQAGGSLSLSCAASGHIIQVKTMGWYRQAPGKERELVASISASVGSTYYADSVKGRFTISRDNAKNTVYLQMNSLKPEDTAVYYCAKSLGYSVVRTLSPTGFYYWGQGTQVTVSS | low polyreactivity |
| QVQLVESGGGLVQAGGSLRLSCAASGFIFAEYAMGWYRQAPGKERELVVAIDVGGGSTYYADSVKGRFTISGDNAKNTVYLQMNSLKPEDTAVYYCAATQYGYWVPYQGFDYWGQGTQVTVSS | low polyreactivity |
| QVQLVESGGGLVQAGGSLRLSCAASGSTFTVNDMGWYRQAPGKERELVAAITQRDGRTFYADSVKGRFTISRDNAQNTVYLLMNSLKPEDTAVYYCAADYGWYTYGDYDYWGQGTQVTVSS | low polyreactivity |
| QVQLVESAAGLVQAGASHRLSCAPSGRIFVNYAMGGYRQAPGKERELVAAITSDGSTSYADSVKGRFTISRDNAKNTVYLQMNSLKPEDSADYYCAKDFFEHSPVSLTYSSSKYDYWGQGTQVTVSS | low polyreactivity |
| QVQLVESGGGLVQAGGSLRLSCAASGSICDDYAMGWYRQAPGKEWELVAAISSSGTSTYYADSVKGRFTISRDNAMYTVYLQMNSLKPEDTAVYYCSARSAILISGYLMDYWGQGTQVTVSS | low polyreactivity |
| QVQLVESGGGLVQAGGSLRLSCAASGFILSPNTMGWYRQAPGKERELVAAISSDVSTYADSVKGRFTISRDNAKNTVYLQMNSLKPEDTAVYYCNADDFGYASYEYWGQGTQVTVSS | low polyreactivity |
| QVQLVESGGGLVQAGGSLRLSCAASGSTVVYNVMGWYRQAPGKEREVVAAFRWRGGSTYADSVKGRFTISRDNAKNTVYLQMNCLKPEDTAVYYCAAGIPRYWYAGHYDYWGQGTQVTVSS | low polyreactivity |
| QVQLVESGGGLVQAGGSLRLSCAASGRIFPTYTMGWYRQAPGKERELVAAINRGGGSTYYADSVKGRFTISRDNAKNTVYLQMNSLKPEDTAVYYCNARTYYRYYGYDYWGQGTQVTVSS | low polyreactivity |
| QDQLVESGGGLVQAGCSLRLSCAASGRIFSWYTMGWYRPAPGKERELVAVITSGGTTKYADSVKGRITISRDNAKNTVYLQMNSLKPEDTAVYYCNVAGRDYAVRWGSFDYWGQGTQVTVSS | low polyreactivity |
| QVQLVESGGGLVQAGGSLRLSCAASGRTFRRNAMGWYRQAPGKERELVADISNGDSTKYADSVKGRFTISRDNAKNTVYLQMNSLKPEDTAVYYCNAQRYRVVVYNSHGWQTRNYWGQGTQVTVSS | low polyreactivity |
| QGQRVESAGGLVQAGGSLRLSCDASGRIFDNYAMGWSSPAPGKERELVAAISRAGNTYADSVKGRVTISRDNAKNTVNLQMNSLNPEETAVFYCAARLYWGRYNYWGQGTQVTVSS | high polyreactivity |
| QVQLVESGGGLVQAGGSLRLSCAASGRIFPWYSMGWYRQAPGKERELVAAISSSGGRTYYADSVKGRFTISRDNAKNTVYLQMNSLKPVDTAVYYCAADRRYISQRTYNYWGQGTQVTVSS | high polyreactivity |
| QVQLVESGGGLVQAGGSLRLSCAASGFIFWRYAMGWYRQAPGKERELVAAISSGGNTKYADSVKGRFTISRDNAKNTVYLQMNSLKPEDTAVYYCAVLGKYLWSATNRFPGSYDSWGQGTQVTVSS | high polyreactivity |
| QVQLVESGLGLVQAGGSLRLSCAASGSTFYLYTMGWYRQAPGKERELVAAITYSGGRTYYADSVKGRFTISRDNAKNTVYLQMNSLKPEDTAVYYCAARRLPRPWTSTSDYWGQGTQVTVSS | high polyreactivity |
| QVQLVESGGGLVQAGGSLRLSCAASGRTFARNALGWYRQAPGKERELVAAITKGGGSTYYADSVKGRFTISRDNAKNTVYLQMNSLKPEDTAVYYCDAYKPSTRRYDYWGQGTQVTVSS | high polyreactivity |
| QVQLVESGGGLVQAGGSLRLSCAASGLTFVWYAMGWYIQAPGKERELVAGITSGGRTYYADSVKGRFTISRDNAKNTVYLQMISLKPEDTGVYDCNAVVRWGYGYDYWGQGTQVTVSS | high polyreactivity |
| QVQLVESGGGLVQAGGSLRLSCAASGRTFLVYAMGWYRQAPGKERELVADITGRGGITYYADSVKGRFTISRDNAKNTVYLQMNSLKPEDTAVYYCAAERYNSKTIYRYDYWGQGTQVTVSS | high polyreactivity |
| QVQLVESGGGLVQAGGSLRLSCAASGGIFWHYTMGWYRQAPGKERELVAAITRRGGSTYYADSVKGRFTISRDNAKNSVYLQMTSLKREDTAVYYCAADFLPQSYNWYDYWGQGTQVTVSS | low polyreactivity |
| QVQLVETGGGLVQAGGSLRLSCAASGSNFLPNAMGWYRQAPGKERELVARISYSGGNTYYADSVKGRFTISRDNAKNTVYLQMNSLKPEDTAVYYCATSHYYNDYTGRRYYYWGQGTQVTVSS | high polyreactivity |
| QVQLVESVGVLVKAGGSLRLSCAASGRIYSSYALGWYRQAPGKEREFVAYISNSGGSTYYADSVKGRFTISRDNAKNTVYLQMNILKPEDTAVYYCAAAVYSYTYRYYYWGQGTQLTVSS | high polyreactivity |

| Sequence | polyreactivity (PSR sort gate) |
| --- | --- |
| QVQLVESGGGLVQAGGSLRLSCAASGLIIYYNAMGWYRQAPGKERELVAAITSGGSTYYADSVKGRFTISRDNAKNTVYLQMNSLKPEDTAVYYCAAVPASYRYPMYYWGQGTQVTVSS | low polyreactivity |
| QLQLGESGGGLVQAAGSRRLSCAASGRTLCYYAMGWYSQAPGQDRELVAAITWTGGRTYYADSVKGRFTISRDNPKNSVYLQMNTLKPDDTAVDYCNAVYSPRYYVGGYDYWGQGTQVTVSS | high polyreactivity |
| QVQLVESGVCLVQAGGSLRLSCAATGFTLSTNALGWYRQEPGKESELVAVISGGDSTSYADSVKGRFTISRDNAKNTVYLQMNSLKPEETAVYYCAKVYRRYTSGYDYWGQGTQVTVSS | high polyreactivity |
| QVQLVESGGGLVQAGGSLRLSCAASGSIFGYNTMGWYRQAPGKERELVATITRGGSTHYADSVKGRFTISRDNAKNTVYLQMNSLKPEDTAVYYCAATRLSYVRLYRFSQQYYYWGQGTQVTVSS | high polyreactivity |
| QVQLVESGGGLVQAGGSLRLSCAASGITFEVYAMAWYRQAPATERELVAVITSVGSTNYADSVKGRFTISRDNAKNTVYLQMNSLKTEDNAVYYCAGEKWTVRRFNPYTYYRYDYWGQGTQVTVSS | low polyreactivity |
| QVQLVESGGGLVQAGGSLRLSCDASGSIFGPYARGWYRQEPGKERELVAAITWTGGRTYYADSVKGRFTISRDNAKNTVYLQMNSLQPEDTAVYYFAADYSPSTWDLYYTLYYYWGQGTQVTVSS | low polyreactivity |
| QGQLVESRGGLVQAGGRLRLSCAASGAIVSKNAMGWYRQAPGKERELVAAISRSAGSTYYADSVKGRFTISRVNAKNTVYLQLHSLKPEDTAVFYCAADWYYWQLWWGEGDYWGQGTQVTVSS | low polyreactivity |
| QDQLVESGGGLVQAGGSLRVSCAASGSIFAWYAMGWYRQAPGKDRELVAVITRGGSTNYADSVKGRFTISRDNAKKTVYLQMNSLKPEDTAVYYCAAGSYYSWYPFDYWGQGTQVTVSS | low polyreactivity |
| QVQLVESGGGLVQARGSLRLSCAASGRTFVDYVMGWYRQAPGKERELVAAITYSGGSTSYADSVKGRFTISRDYAKNNFNLQMNSLKPEDTAVYYCNADGDHPYSRNDYWGQGTQVTVSS | low polyreactivity |
| QVQLVESGGGLVQAGGSLRLSCAASGSTFEGYAMGWYRQAPGKERELVAVISSGSITKYADSVKGRFTISRDNAKNTVYLQMNSLKQEDTAVYYCAADWTYVRFDYWGQGTQVTVSS | low polyreactivity |
| QVQLVESGGGLVQAGCSLRLSCAASGRIFVAITMGRYRQAPGKERELVAAITRGTNTYYADSVKGRFTISRDNAKNTVDLQMNSLKPEDSAVYYCAARLPYNAIGYYYWGHGTQVTVSS | low polyreactivity |
| QVQLVESGGGLVQAGGSLRLSCAASGITFTEYAMGWYRQAPGKERELVATISYGGGITYYADSVKGRFTISRDNAKNTVYLQMNSLKPEDTAVYYCAADGLSQVQRGMDYWGQGTQVNVSS | low polyreactivity |
| QVQLEESGGGLVQAGGSLRLSCAASGFTFLYNAMGWYRQAPGKERELVASINSGGSTNYADSVKGRVTISRDNAKNTVYLQMNSLKPEDTAVYYCNAKRHVRKGDYWGQGTQVTVSS | low polyreactivity |
| QVQLVESGGGLVQAGGSLLLSCAASGRTFGYYAMGWYRQAPGKETELVAAISSGGGTYYADSVKGRFTISRDNAKNTVYLQMNSLKPEDTAVYYCAATGWVYWGQFDYWGQGTQVTVSS | low polyreactivity |
| QVQLVESGGGLVQAVGSLRLSCAASGITFKWYAMGSYRHAPGKERELVAAISWSTGSTYYADSVKGRFTISRDNAKNTVYLQMNSLKPEDTAVYYCAARVKRPQTGYDRRYGYWGQGTQVTVSS | high polyreactivity |
| QVQLVESGGGLVQAGGSLRLSCAASGRIVYYNVMGWYRQAPGKEREFVAAISTRTGSTYYADSVKGRFTISRDNAKNSVYLQMNRLKPEDTAVYYCAAPYRAYSYDYWGQGTQVTVSS | high polyreactivity |
| QVQLVESGGGLVQAGGSLRLSCAASGSIFASNSMGWYRQEPGQERELVAAINSGDSTNYADTVKGRFTISRDTAKNTVYLQMNSLKPEDTAVYYCARGLEERYDYWGQRTQVTVSS | low polyreactivity |
| QVQLVDSGGGLVQAGGSLRLSCAASGSTFYGYAMGWYRQAPGKERELVATISSSGAITYYADSVKWRFTISRDNAKNTVYLQMNRLKPEDPAVYYCARTGSLLSQVWYNYWGQGTQVTVSS | low polyreactivity |
| QVQLVESGGGLVQAGGSLRLSCAASGSIFPYYAMGWYRQAPGKERELVATITYRGGSTNYADSVKGRFTISRDNAKNTVYLQMNSLKPEDTAVYYCAAYGYVLASPDPYSFVKLGYWGQGTQVTVSS | low polyreactivity |
| QVQLVESGGGLVQAGGSLRLSCAASGRIFQPNVMGWYRPAPGKERELVAAIRSGSSTYYADSVKGRFTISRDNAKYTVYLQMNCLKPEDTAVYFCATRYRKQYKPYEYWGQGTQVTVSS | high polyreactivity |
| QVQLVESGGGLVQAGGSLRLSCAASGSTFTSYAMGWYRQAPGKERELVATISKISGSTYYADSVKGRFTISRDNAKNTVYLQMNSLKPEDTAVYYCAAKQGWVQSSILWYRAYGYWGQGTQVTVSS | high polyreactivity |
